The source of these data is patent publication US20150266977A1 (AbbVie / Abbott, published 2015).

The target of assay [1] is T1, recombinant human TNF-α (human, UniProt P01375 77-233).
T1 construct: also called huTNF; Human TNFa
Description: SPR. A general note: SPR reads the build-up and loss of mass on a sensor chip optically.

Assay [2] concerns the target T2, recombinant human sclerostin (human, UniProt Q9BQB4 24-213).
T2 construct: biotinylated in the ELISAs; also called hu sclerostin; hu scl
T2 sequence: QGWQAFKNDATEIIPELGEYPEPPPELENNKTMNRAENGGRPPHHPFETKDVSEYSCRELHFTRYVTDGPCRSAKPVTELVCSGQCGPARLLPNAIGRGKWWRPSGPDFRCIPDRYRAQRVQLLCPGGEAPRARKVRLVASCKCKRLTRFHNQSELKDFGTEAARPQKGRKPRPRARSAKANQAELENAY
Kind of assay: SPR.

In the next assay the target is Rhesus/cynoTNFa (Rhesus/cyno). Kind of assay: cell-based or functional assay.
The target of assay [3] is T1, recombinant human TNF-α. Description: cell-based or functional assay.
For assay [4], the target named is T1, recombinant human TNF-α. Kind of assay: cell-based or functional assay. This is another data set of the same source.
The target of assay [5] is T3, recombinant cynomolgus monkey sclerostin (cynomolgus monkey).
T3 construct: also called cyno sclerostin; Cyno sclerostin
Description: SPR.

T1 sequence (P01375 77-233 limits assumed): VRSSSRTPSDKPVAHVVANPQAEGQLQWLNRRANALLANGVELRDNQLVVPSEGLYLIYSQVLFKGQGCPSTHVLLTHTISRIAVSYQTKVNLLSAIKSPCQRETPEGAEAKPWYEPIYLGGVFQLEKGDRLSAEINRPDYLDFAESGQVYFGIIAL
Rhesus/cynoTNFa (Rhesus/cyno), sequence (P48094 whole entry): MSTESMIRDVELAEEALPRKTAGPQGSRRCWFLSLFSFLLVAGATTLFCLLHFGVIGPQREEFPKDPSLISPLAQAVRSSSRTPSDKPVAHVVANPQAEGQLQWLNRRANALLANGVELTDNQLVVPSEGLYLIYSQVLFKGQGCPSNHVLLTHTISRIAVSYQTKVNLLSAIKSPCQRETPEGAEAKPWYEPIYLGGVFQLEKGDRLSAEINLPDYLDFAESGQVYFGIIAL

B1: MAK199-1-SS-AE10-6 AM7 (bispecific antibody, human IgG1, lambda, L234A L235A)
heavy: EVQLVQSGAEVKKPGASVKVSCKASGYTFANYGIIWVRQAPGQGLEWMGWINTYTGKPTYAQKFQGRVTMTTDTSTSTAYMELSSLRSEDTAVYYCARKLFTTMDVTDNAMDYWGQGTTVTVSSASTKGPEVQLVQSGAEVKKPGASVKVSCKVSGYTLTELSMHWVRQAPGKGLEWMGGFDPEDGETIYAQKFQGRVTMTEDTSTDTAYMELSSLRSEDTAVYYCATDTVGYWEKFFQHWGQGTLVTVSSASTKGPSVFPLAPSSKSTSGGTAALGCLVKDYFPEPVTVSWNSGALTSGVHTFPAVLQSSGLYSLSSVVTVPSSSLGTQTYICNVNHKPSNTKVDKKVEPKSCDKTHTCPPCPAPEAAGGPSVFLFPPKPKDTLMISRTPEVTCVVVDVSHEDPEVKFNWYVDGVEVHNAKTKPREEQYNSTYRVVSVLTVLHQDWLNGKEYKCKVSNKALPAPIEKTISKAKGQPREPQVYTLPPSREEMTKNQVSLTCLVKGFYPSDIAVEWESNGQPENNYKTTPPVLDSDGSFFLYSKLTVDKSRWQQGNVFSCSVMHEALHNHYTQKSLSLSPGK
light: DIQMTQSPSSLSASVGDRVTITCRASQDISQYLNWYQQKPGKAPKLLIYYTSRLQSGVPSRFSGSGSGTDFTLTISSLQPEDFATYFCQQGNTWPPTFGQGTKLEIKRTVAAPQAVVTQEPSLTVSPGGTVTLTCGSSTGTVTIDHYPYWFQQKPGQAPRTLISDTDDKHSWTPARFSGSLLGGKAALTLSGAQPEDEAEYYCLLDYGGRFVFGGGTKLTVLGQPKAAPSVTLFPPSSEELQANKATLVCLISDFYPGAVTVAWKADSSPVKAGVETTTPSKQSNNKYAASSYLSLTPEQWKSHRSYSCQVTHEGSTVEKTVAPTECS
notes: DVD-Ig: outer MAK199-1, inner AE10-6 AM7
By Kd is commonly meant a measure of binding affinity in units of concentration. The koff is the first-order rate constant of dissociation. The kon is the second-order rate constant of association. As to B1, in the assay with recombinant human TNF-α [1], the equilibrium dissociation constant (Kd) was found to be 0.017 nM, the koff worked out at 4.4e-05 s⁻¹ and the kon turned out to be 2.6e+06 M⁻¹ s⁻¹. In addition, in assay [2], the Kd was found to be 0.052 nM, the koff stood at 8.3e-06 s⁻¹ and the on-rate constant (kon) came out at 160000 M⁻¹ s⁻¹. In addition, the “L929 TNF neutralization IC50” value with Rhesus/cynoTNFa came out at 0.0569 nM. In the assay with recombinant human TNF-α [3], the “L929 TNF neutralization IC50” value is 0.0581 nM.

B2: MAK199-1-GS-AE10-6 AM7 (bispecific antibody, human IgG1, lambda, L234A L235A)
heavy: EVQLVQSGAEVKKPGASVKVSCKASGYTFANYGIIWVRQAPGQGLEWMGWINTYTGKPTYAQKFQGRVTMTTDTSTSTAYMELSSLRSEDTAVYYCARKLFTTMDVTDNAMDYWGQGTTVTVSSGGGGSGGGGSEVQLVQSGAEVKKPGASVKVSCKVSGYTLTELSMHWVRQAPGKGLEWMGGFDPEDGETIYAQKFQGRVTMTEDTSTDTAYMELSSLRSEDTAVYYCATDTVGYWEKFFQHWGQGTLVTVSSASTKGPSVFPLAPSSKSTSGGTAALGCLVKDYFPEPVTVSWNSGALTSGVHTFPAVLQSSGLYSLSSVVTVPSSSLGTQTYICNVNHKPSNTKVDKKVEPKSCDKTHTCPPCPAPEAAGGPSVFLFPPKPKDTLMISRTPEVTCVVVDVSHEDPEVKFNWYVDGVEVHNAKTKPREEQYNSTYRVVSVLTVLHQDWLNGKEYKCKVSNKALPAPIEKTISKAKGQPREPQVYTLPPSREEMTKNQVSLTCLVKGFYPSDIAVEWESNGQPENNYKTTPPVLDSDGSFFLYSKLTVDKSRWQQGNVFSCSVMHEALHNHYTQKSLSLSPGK
light: DIQMTQSPSSLSASVGDRVTITCRASQDISQYLNWYQQKPGKAPKLLIYYTSRLQSGVPSRFSGSGSGTDFTLTISSLQPEDFATYFCQQGNTWPPTFGQGTKLEIKRGGSGGGGSGQAVVTQEPSLTVSPGGTVTLTCGSSTGTVTIDHYPYWFQQKPGQAPRTLISDTDDKHSWTPARFSGSLLGGKAALTLSGAQPEDEAEYYCLLDYGGRFVFGGGTKLTVLGQPKAAPSVTLFPPSSEELQANKATLVCLISDFYPGAVTVAWKADSSPVKAGVETTTPSKQSNNKYAASSYLSLTPEQWKSHRSYSCQVTHEGSTVEKTVAPTECS
notes: DVD-Ig: outer MAK199-1, inner AE10-6 AM7; also called MAK199-1-GS-AM10-6 AM7; MAK199-1GSAM10-6 AM7
Turning to B2, in the assay with recombinant human TNF-α [4], the “L929 TNF neutralization IC50 with 50 nM SOST” value came to 0.036 nM and the “L929 TNF neutralization IC50 without 50 nM SOST” value is 0.025 nM. For the same molecule, in the assay with recombinant human TNF-α [1], the Kd worked out at 0.027 nM, the dissociation rate constant (koff) turned out to be 5.8e-05 s⁻¹ and the kon is 2.1e+06 M⁻¹ s⁻¹. Besides, in assay [5], the Kd is less than 0.00011 nM, the koff was less than 1e-06 s⁻¹ and the kon worked out at 9.3e+06 M⁻¹ s⁻¹. Moreover, in assay [2], the Kd was 0.00039 nM, the koff came to 2.3e-06 s⁻¹ and the on-rate (kon) was 5.9e+06 M⁻¹ s⁻¹. Besides, the “L929 TNF neutralization IC50” value with Rhesus/cynoTNFa was found to be 0.042 nM. Moreover, the “L929 TNF neutralization IC50” value with recombinant human TNF-α [3] worked out at 0.0677 nM.
